Here are results for 21 molecules from patent US6350430B1, “Melanocortin receptor ligands and methods of using same” (Lion Bioscience Science AG, priority 1997, dated 2002).

The target in assay [1] is MC receptors in rat brain homogenate. In words: Melanocortin receptor binding assay using ^125I-HP 467 in rat brain homogenate. The following applies: individual tetrapeptides. The procedure:
For assays, fine chemicals were obtained from Sigma (St. Louis Mo.) and GF/B plates and MICROSCINT were obtained from Packard Instrument Co. (Meriden Conn.). Frozen rat brains were thawed and the thalamus and hypothalamus were dissected out and weighed. The tissue was homogenized in 40 ml buffer A (50 mM Tris-HCl, 2 mM EDTA, 10 mM CaCl2, 100 μM PMSF, pH 7.4) in a Dounce homogenizer. The homogenate was centrifuged at 39,000×g for 10 min, resuspended in 20 ml fresh buffer and recentrifuged. The pellet was resuspended in 80 ml buffer B (50 mM Tris-HCl, 2 mM EDTA, 10 mM CaCl2, 5 mM MgCl2, 100 μM PMSF, pH 7.4). ^125I-HP 467 was custom labeled by Amersham to a specific activity of 2000 Ci/mmol (Amersham; Arlington Heights IL). Fifty pM ^125I-HP 467 and 0.2 mg protein/ml membrane suspension containing 2 mg/ml BSA was added to each assay tube.
Competition assays were performed using α-MSH, γ1-MSH, γ2-MSH, γ3-MSH and ACTH (4-10) also containing 1 mM phenanthroline, 200 μg/ml bacitracin, and 5 μg/ml leupeptin. Tubes were incubated for 2 hours at 37° C. The assay was terminated by filtration through GF/B filters previously soaked in 5 mg/ml BSA Tris-HCl buffer. The samples were washed with Tris-HCl, dried and counted in Packard Minaxl gamma counter (Packard Instrument Co.).
IC50 values were determined in brain tissue as described in Example III.

Assay [2] deals with MC receptors in rat brain homogenate (rat). The assay is described as follows: competition binding, rat brain membranes.
In assay [3] the target is MC receptors of mouse B16 cells (mouse). The assay is described as follows: competition binding, mouse B16 cells; tracer not stated.
MC receptors of mouse B16 cells (mouse), sequence (Q01727 whole entry): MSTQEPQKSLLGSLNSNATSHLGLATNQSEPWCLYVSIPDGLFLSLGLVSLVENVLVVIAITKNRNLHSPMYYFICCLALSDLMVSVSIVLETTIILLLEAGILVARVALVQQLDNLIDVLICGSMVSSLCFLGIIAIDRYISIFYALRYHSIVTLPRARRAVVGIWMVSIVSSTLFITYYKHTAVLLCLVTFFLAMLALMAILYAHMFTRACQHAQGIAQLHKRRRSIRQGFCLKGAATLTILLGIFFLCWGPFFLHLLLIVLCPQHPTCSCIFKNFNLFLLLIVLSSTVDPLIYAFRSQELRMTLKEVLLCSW
Assay [4] addresses T1, MC receptor in mouse B16 cells (Mus musculus, UniProt Q01727).
T1 construct: endogenous in cells; host or cells: mouse B16 cells
The assay is described as follows: MC receptor binding activity in mouse B16 cells. To be noted: individual tetrapeptides. The source says: The 36 peptides were screened for MC receptor binding activity in rat brain and in mouse B16 cells.

The target of assay [5] is MC receptors in rat brain homogenate. The assay is described as follows: Melanocortin receptor binding assay using ^125I-HP 467 in rat brain homogenate. The following applies: saturation binding to rat brain membranes.
In another assay the target is T2, hMC1 (Homo sapiens, UniProt Q01726).
T2 construct: expressed in transfected cells; host or cells: mouse L cells
T2 sequence (Q01726 whole entry): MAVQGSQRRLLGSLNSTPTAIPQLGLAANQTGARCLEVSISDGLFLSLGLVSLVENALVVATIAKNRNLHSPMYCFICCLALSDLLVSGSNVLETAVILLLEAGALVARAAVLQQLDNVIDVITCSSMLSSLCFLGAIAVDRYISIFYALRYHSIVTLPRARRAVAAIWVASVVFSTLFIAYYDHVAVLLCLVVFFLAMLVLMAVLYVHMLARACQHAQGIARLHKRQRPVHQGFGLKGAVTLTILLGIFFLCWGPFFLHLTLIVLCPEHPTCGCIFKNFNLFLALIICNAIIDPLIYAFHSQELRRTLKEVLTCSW
The assay is described as follows: Displacement of ^125I-HP 467 in transfected mouse L cells expressing hMC1. The following applies: receptor expressed in mouse L cells, read-out: Binding IC50, MC-1.

A further assay addresses T3, hMC3 (Homo sapiens, UniProt P41968).
T3 construct: expressed in transfected cells; host or cells: mouse L cells
The assay is described as follows: Displacement of ^125I-HP 467 in transfected mouse L cells expressing hMC3. The following applies: receptor expressed in mouse L cells, read-out: Binding IC50, MC-3.

A further assay has as its target T4, hMC4 (Homo sapiens, UniProt P32245).
T4 construct: expressed in transfected cells; host or cells: mouse L cells
In words: Displacement of ^125I-HP 467 in transfected mouse L cells expressing hMC4. The following applies: receptor expressed in mouse L cells, read-out: Binding IC50, MC-4.

A further assay has as its target T5, hMC5 (Homo sapiens, UniProt P33032).
T5 construct: expressed in transfected cells; host or cells: HEK 293 cells
In words: Displacement of ^125I-HP 467 in HEK 293 cells expressing hMC5. To be noted: receptor expressed in HEK 293 cells, read-out: Binding IC50, MC-5.

Assay [6] addresses human melanocortin receptor 3 (human) (UniProt P41968). In words: saturation radioligand binding; mouse L cells expressing MC3.
Assay [7] shares this target. The assay is described as follows: saturation radioligand binding; HEK 293 cells expressing MC3.
Assay [8] has as its target human melanocortin receptor 1 (human) (UniProt Q01726). In words: saturation radioligand binding; mouse L cells expressing MC1.
Assay [9] has the same target. The assay is described as follows: saturation radioligand binding; HEK 293 cells expressing MC1.
For assay [10], the target named is human melanocortin receptor 4 (human) (UniProt P32245). In words: saturation radioligand binding; mouse L cells expressing MC4.
human melanocortin receptor 4 (human), sequence (P32245 whole entry): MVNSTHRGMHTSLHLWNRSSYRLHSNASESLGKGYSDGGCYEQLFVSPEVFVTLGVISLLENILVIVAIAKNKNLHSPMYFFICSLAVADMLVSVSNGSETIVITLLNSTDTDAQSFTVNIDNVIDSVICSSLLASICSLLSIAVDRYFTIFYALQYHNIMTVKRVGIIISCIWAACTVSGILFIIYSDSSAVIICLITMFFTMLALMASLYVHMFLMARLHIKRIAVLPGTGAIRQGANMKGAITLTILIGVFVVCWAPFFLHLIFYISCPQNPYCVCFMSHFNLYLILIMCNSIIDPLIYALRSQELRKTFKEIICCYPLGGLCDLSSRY
The next assay relates to Sprague-Dawley rats. In words: HP 467 antagonism of HP 228 induced hypophagia (food intake). To be noted: IP BID, HP 228 1.5 mg/kg, HP 467 3.0 mg/kg. In kind it is in vivo. The method, then:
Male Sprague-Dawley rats weighing 250 to 300 grams were divided into three treatment groups of 8 rats each. The control group received IP saline injections BID (1 ml/kg) at 8 AM and 4 PM. […] After each injection, each rat immediately received a second injection. […] All injections started at 4 PM on day 0 and ended on the afternoon of day 2. Food consumption and body weight measurements were taken daily, each morning.

The target in assay [11] is MC receptors in rat brain homogenate (rat). The assay is described as follows: saturation radioligand binding, rat brain membranes.

*1 amine or outer side, *2 acyl side, *3 side chain or, on linkers, in order; H or OH if unused. Where a SMILES comes first, the peptide text is derived from it. [ ]: non-standard residue; d: D form. The star is where a group is joined. dPhe(4-125I) = para-(125I)iodo-D-phenylalanine, O=C([C@@H](Cc1ccc([125I])cc1)N[*:1])[*:2]; dPhe(4-Cl) = N[C@H](Cc1ccc(Cl)cc1)C(=O)O; dPhe(4-I) = N[C@H](Cc1ccc(I)cc1)C(=O)O; 2Nal = N[C@@H](Cc1ccc2ccccc2c1)C(=O)O; d2Nal = N[C@H](Cc1ccc2ccccc2c1)C(=O)O; Fmoc = O=C(OCC1c2ccccc2-c2ccccc21)*; Cha = N[C@@H](CC1CCCCC1)C(=O)O; d2Thi = N[C@H](Cc1cccs1)C(=O)O; Nle = CCCC[C@H](N)C(=O)O Some results are limits rather than exact numbers.

human melanocortin receptor 1 (human), sequence (Q01726 whole entry): as the sequence (Q01726 whole entry) above
T5 sequence (P33032 whole entry): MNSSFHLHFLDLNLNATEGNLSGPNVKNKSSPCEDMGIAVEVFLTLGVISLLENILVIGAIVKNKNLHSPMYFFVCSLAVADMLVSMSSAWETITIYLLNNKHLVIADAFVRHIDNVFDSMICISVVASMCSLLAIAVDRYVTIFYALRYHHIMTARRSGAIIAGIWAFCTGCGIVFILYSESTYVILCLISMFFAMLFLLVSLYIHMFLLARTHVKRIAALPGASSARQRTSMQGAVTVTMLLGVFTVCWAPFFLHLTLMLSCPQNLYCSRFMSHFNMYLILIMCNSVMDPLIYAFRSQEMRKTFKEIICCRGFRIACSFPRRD
human melanocortin receptor 3 (human), sequence (P41968 whole entry): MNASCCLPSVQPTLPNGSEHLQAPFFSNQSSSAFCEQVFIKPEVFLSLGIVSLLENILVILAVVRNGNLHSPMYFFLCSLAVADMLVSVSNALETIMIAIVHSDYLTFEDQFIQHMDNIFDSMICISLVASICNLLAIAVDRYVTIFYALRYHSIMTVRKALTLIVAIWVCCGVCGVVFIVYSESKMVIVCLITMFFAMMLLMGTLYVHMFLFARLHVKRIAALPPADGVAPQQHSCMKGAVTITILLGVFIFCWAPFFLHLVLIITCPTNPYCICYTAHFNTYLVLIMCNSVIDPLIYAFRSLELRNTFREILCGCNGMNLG
T4 sequence (P32245 whole entry): as the sequence (P32245 whole entry) above
T1 sequence (Q01727 whole entry): as the sequence (Q01727 whole entry) above
T3 sequence (P41968 whole entry): as the sequence (P41968 whole entry) above

What is called IC50 is the midpoint of a concentration-inhibition curve. In assay [1], `CC(=O)NCCCC[C@H](NC(=O)OCC1c2ccccc2-c2ccccc21)C(=O)N[C@@H](CCCNC(=N)N)C(=O)N[C@@H](CC1CCCCC1)C(=O)N[C@H](CCCNC(=N)N)C(N)=O` [Ac-(αFmLys)-R-(L-Cha)-r-NH2] (Fmoc-K(Ac)R[Cha][dR]-NH2) yielded an IC50 of 427 nM.
Regarding Ac-(αFmLys)-R-(L-Cha)-r-NH2 (peptide), the half-inhibitory concentration (IC50) in assay [2] amounted to 427 nM; in assay [3], 185 nM.
`CC(=O)N[C@@H](Cc1c[nH]cn1)C(=O)N[C@H](Cc1ccc(Cl)cc1)C(=O)N[C@@H](CC1CCCCC1)C(=O)N[C@H](CCCNC(=N)N)C(N)=O` [Ac—H-(pcl-f)-(L-Cha)-r-NH2] (Ac-H[dPhe(4-Cl)][Cha][dR]-NH2): the values for the half-maximal inhibitory concentration (IC50) in assay [1] and in assay [4] were above 5000 nM and 156 nM, respectively.
By Kd is commonly meant the constant that tells how readily two partners part at equilibrium. Lower therefore signals a tighter complex. Take `CCCC[C@H](NC(C)=O)C(=O)N[C@@H](CCC(N)=O)C(=O)N[C@@H](Cc1c[nH]cn1)C(=O)N[C@H](Cc1ccc(I)cc1)C(=O)N[C@@H](CCCNC(=N)N)C(=O)N[C@H](Cc1c[nH]c2ccccc12)C(=O)NCC(N)=O` [^125I-HP 467, Ac-Nle-Gln-His-(p(^125I)-D-Phe)-Arg-(D-Trp)-Gly-NH2] (Ac-[Nle]QH[dPhe(4-I)]R[dW]G-NH2): binding in [5] was characterised by a dissociation constant (Kd) of 0.4 nM.
In assay [3], Ac-H-(pcl-f)-(L-Cha)-r-NH2 (peptide) had a 50% inhibitory concentration (IC50) of 156 nM.
As to “Ac-(αFmLys)-(pCl-f)-R-(Nal)-NH2 (peptide)”, the half-maximal inhibitory concentration (IC50) in assay [2] amounted to 427 nM; in assay [3] it was 41 nM.
On to “Ac-H-(pCl-f)-R-(D-Nal)-NH2 (SEQ ID NO:18) (peptide)”, for which the half-inhibitory concentration (IC50) turned out to be 51 nM in [2] and 19 nM in [3].
Turning to `CC(=O)NCCCC[C@H](NC(=O)OCC1c2ccccc2-c2ccccc21)C(=O)N[C@H](Cc1ccc(Cl)cc1)C(=O)N[C@@H](CCCNC(=N)N)C(=O)N[C@@H](Cc1ccc2ccccc2c1)C(N)=O` [Ac-(αFmLys)-(pCl-f)-R-(Nal)-NH2] (Fmoc-K(Ac)[dPhe(4-Cl)]R[2Nal]-NH2), in assay [1], the concentration for half-maximal inhibition (IC50) came to 427 nM.
Turning to `CCCC[C@H](NC(C)=O)C(=O)N[C@@H](CCC(N)=O)C(=O)N[C@@H](Cc1c[nH]cn1)C(=O)N[C@H](Cc1ccc(I)cc1)C(=O)N[C@@H](CCCNC(=N)N)C(=O)N[C@H](Cc1c[nH]c2ccccc12)C(=O)NCC(N)=O` [HP 467, Ac-Nle-Gln-His-(p(I)-D-Phe)-Arg-(D-Trp)-Gly-NH2] (Ac-[Nle]QH[dPhe(4-I)]R[dW]G-NH2), the IC50 was determined as 0.23 nM on hMC1, 0.48 nM on hMC3, 0.31 nM at hMC4 and 0.46 nM at hMC5.
In the case of `CC(=O)NCCCC[C@H](NC(=O)OCC1c2ccccc2-c2ccccc21)C(=O)N[C@@H](CCCNC(=N)N)C(=O)N[C@@H](CCCNC(=N)N)C(=O)N[C@@H](Cc1ccc2ccccc2c1)C(N)=O` [Ac-(αFmLys)-R-R-(Nal)-NH2] (Fmoc-K(Ac)RR[2Nal]-NH2), in assay [1], the IC50 was 2000 nM.
For “^125I-HP 467, Ac-Nle-Gln-His-(p(^125I)-D-Phe)-Arg-(D-Trp)-Gly-NH2”, the Kd turned out to be 0.04 nM in assay [6]; 0.29 nM in assay [7]; 0.092 nM in assay [8]; 0.132 nM in assay [9]; 0.082 nM in assay [10].
In [1], `CC(=O)NCCCC[C@H](NC(=O)OCC1c2ccccc2-c2ccccc21)C(=O)N[C@@H](CCCNC(=N)N)C(=O)N[C@@H](CC1CCCCC1)C(=O)N[C@@H](Cc1ccc2ccccc2c1)C(N)=O` [Ac-(αFmLys)-R-(L-Cha)-(Nal)-NH2] (Fmoc-K(Ac)R[Cha][2Nal]-NH2) displayed an IC50 above 4000 nM.
For Ac-(αFmLys)-R-R-(Nal)-NH2 (peptide), the figures for the concentration for half-maximal inhibition (IC50) in [2] and in assay [3] were 2000 nM and 1420 nM, respectively.
With “Ac-(αFmLys)-(D-Thi)-R-(Nal)-NH2 (peptide)”, the IC50 in [2] amounted to 469 nM.
In [1], `CC(=O)N[C@@H](Cc1c[nH]cn1)C(=O)N[C@H](Cc1ccc(Cl)cc1)C(=O)N[C@@H](CCCNC(=N)N)C(=O)N[C@@H](Cc1ccc2ccccc2c1)C(N)=O` [AC—H-(pcl-f)-R-(Nal)-NH2] (Ac-H[dPhe(4-Cl)]R[2Nal]-NH2) came in with a 50% inhibitory concentration (IC50) of 18 nM.
For AC-H-(pcl-f)-R-(Nal)-NH2 (peptide), the values for the IC50 in assay [2] and in assay [3] were 18 nM and 68 nM, respectively.
Turning to `CCCC[C@H](NC(C)=O)C(=O)N[C@@H](CCC(N)=O)C(=O)N[C@@H](Cc1c[nH]cn1)C(=O)N[C@H](Cc1ccccc1)C(=O)N[C@@H](CCCNC(=N)N)C(=O)N[C@H](Cc1c[nH]c2ccccc12)C(=O)NCC(N)=O` [HP 228, Ac-(Nle)QHfRwG-NH2, reference compound], the results for the IC50 on hMC1 and at hMC5 were 1.49 nM and 194 nM, respectively. In addition, the “Hypophagia (food intake) Change, Day 1” value in the assay with Sprague-Dawley rats (Day 1) is on record as −6.8%. Besides, the “Hypophagia (food intake) Change, Day 2” value in the assay with Sprague-Dawley rats (Day 2) is listed as −5.3%.
As to `CC(=O)N[C@@H](Cc1c[nH]cn1)C(=O)N[C@H](Cc1ccc(Cl)cc1)C(=O)N[C@@H](CCCNC(=N)N)C(=O)N[C@H](Cc1ccc2ccccc2c1)C(N)=O` [Ac—H-(pCl-f)-R-(D-Nal)-NH2, Ac-His-(pCl-f)-Arg-(D-Nal)-NH2] (Ac-H[dPhe(4-Cl)]R[d2Nal]-NH2), the half-maximal inhibitory concentration (IC50) in assay [1] turned out to be 51 nM; in assay [1] (listed as Ac-His-(pCl-f)-Arg-(D-Nal)-NH2), 18 nM.
`CC(=O)NCCCC[C@H](NC(=O)OCC1c2ccccc2-c2ccccc21)C(=O)N[C@H](Cc1cccs1)C(=O)N[C@@H](CCCNC(=N)N)C(=O)N[C@@H](Cc1ccc2ccccc2c1)C(N)=O` [Ac-(αFmLys)-(D-Thi)-R-(Nal)-NH2] (Fmoc-K(Ac)[d2Thi]R[2Nal]-NH2) displayed an IC50 in assay [1] of 469 nM.
“Ac-(αFmLys)-R-(L-Cha)-(Nal)-NH2 (peptide)” came in with an IC50 in [3] of 1140 nM.
Turning to Ac-[Nle]QH[dPhe(4-125I)]R[dW]G-NH2 [^125I-HP 467, Ac-Nle-Gln-His-(p(^125I)-D-Phe)-Arg-(D-Trp)-Gly-NH2], in assay [11], the Bmax (fmoles/mg protein) is 21 and the equilibrium dissociation constant (Kd) came to 0.4 nM.
